The results in this text go back to the nanobody polyreactivity screen of Harvey et al. (2022).

This data set can be described thus: yeast display, Sf9 membrane polyspecificity reagent, FACS + sequencing; frameworks hold sequencing errors. The procedure, abridged:
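Nanobodies from a synthetic yeast display library (Saccharomyces cerevisiae BJ5465), induced 36–48 hours with galactose, were stained 1 hour at 4 °C with 10% biotinylated, detergent-solubilized Sf9 membrane reagent, enriched on streptavidin microbeads, then FACS-sorted. Anti-HA (expression) and streptavidin (reagent binding) fluorescence set low and high (top ~1%) gates. Polyreactivity labels come from the gate of origin. Genes were colony-PCR amplified, MiSeq 2 × 250 sequenced and filtered by CDR length.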
Take “QVQLVESGGGLVQAGGSLRLSCAPSGSTFPQYAMGWYRQAPGKERELVADISSGVSTNYADSVKGRFTISRDNAKNTVYLLMNSLKPEDTAVYYCAAQAYVEGVYRYDYWGQGTQVTVSS”: the “polyreactivity (PSR sort gate)” value is reported as “low polyreactivity”.

Turning to “QVQLVESGGGLVQAGGSLRLSCAPSGSTFPWNAMGWYRQAPGKERELVAAIRTGGGRTYYADSVKGRFTISRDNAKNTVYLQMNSLKPEDTAVYYCNAYFTYWSQLYYWGQGTQVTVSS”, the “polyreactivity (PSR sort gate)” value is “high polyreactivity”.

Consider “QVQLVESGGGLVQAGGSLRLSCAPSGSTFRFYAMGWYRQAPGKERELVAVISSAGSTNYADSVKGRFTISRDNAQNTVYLQMNSLKPEDTAVYYCAAYRRYSIYNYWGQGTQVTVSS”, for which the “polyreactivity (PSR sort gate)” value is “high polyreactivity”.

“QVQLVESGGGLVQAGGSLRLSCAPSGSTFTSYAMGWYRQAPGKDRELVAAITYGSGTTYADSVKGRFTISRDNAKNTVYLQMNSLKPEDTAVYYCAADFYYPVLGHGFPTYEYDYWGQGTQVTVSS”: the “polyreactivity (PSR sort gate)” value is recorded as “low polyreactivity”.

For the sequence “QVQLVESGGGLVQAGGSLRLSCAPSGSTFTSYAMGWYRQAPGKERELVAAITYGSGTTYADSVKGRFTISRDNAKNTVYLQMNSLKPEDTAVYYCAADFYYPVLGHGFPTYEYDYWGQGTQVTVSS”, the “polyreactivity (PSR sort gate)” value is reported as “low polyreactivity”.

In the case of “QVQLVESGGGLVQAGGSLRLSCAPSGSTFVRYAMGWYRQAPGKESELVAAISKSGVSTYYADSVKGRFTISRDNAKNTVNLQMNSLKPEDTAVYYCAAYARGVRRYRRYDYWGPGTQVTVSS”, the “polyreactivity (PSR sort gate)” value is reported as “high polyreactivity”.

As to “QVQLVESGGGLVQAGGSLRLSCAPSGSTFVYYAMGWYRPAPGKERELVAAINRSGTRTYYADSVKGRFSISRDNAKNTVYLQMNSLKPEDTAVYYCDKAVQGKYGYWGQGTQVTVSS”, the “polyreactivity (PSR sort gate)” value is “high polyreactivity”.

Take “QVQLVESGGGLVQAGGSLRLSCAPSGSTFYKNAMGWYRQAPWKERELVAGISRRGGRTYYADSVKGRFSISRDNAKNTVYLQMNSLKPEDTAVYYCNARLLSGPGYDYWGQGTQVTVSS”: the “polyreactivity (PSR sort gate)” value is “low polyreactivity”.

For the sequence “QVQLVESGGGLVQAGGSLRLSCAPSGSTFYYYAMGWYRQAPGKERELVAAITYRGGTYYADSVKGRFTISRDNAKNTVYLQMNSLKPEDTAVYYCAAPLSRIMDYWGQGTQVTVSS”, the “polyreactivity (PSR sort gate)” value is “high polyreactivity”.

Turning to “QVQLVESGGGLVQAGGSLRLSCAPSGSTLNVYAMGWYRQAPGKERELVAAIRWSGDTYYADSVKGRFTISRDNAKNTVYLQMNSLKPEDTAVYYCAADPGTTYWQRFDYWGQGTQVTVSS”, the “polyreactivity (PSR sort gate)” value was “low polyreactivity”.

“QVQLVESGGGLVQAGGSLRLSCAPSGYIFPFNALGGYRQAPGKERELVAAINNGGRTYYADSVKGRFTISRDNAKNTVFLQMHSLKPEDTAVDSCAAGSKSDMDWGQGTQVTVSS”: the “polyreactivity (PSR sort gate)” value was “low polyreactivity”.

With “QVQLVESGGGLVQAGGSLRLSCAPSGYTFARYAMGWSRQAPGKDRELVAAITSSGGSTYYADSVKGRFTSSRDNAKNTVYLQMNSLKPEDTAVYYCNARGFQKSDPRGYLILNYWGQGTQVTVSS”, the “polyreactivity (PSR sort gate)” value is reported as “high polyreactivity”.

For “QVQLVESGGGLVQAGGSLRLSCAPSRRIFRSYAMGWYSQAPGKERELVAAISSRGSTYYADSVKGRFTISRDNEKNTVFLQMNSLKPEDTAVYYCAVHLWVYPLKREFYWGQGTQVTVSS”, the “polyreactivity (PSR sort gate)” value is reported as “high polyreactivity”.

As to “QVQLVESGGGLVQAGGSLRLSCASSGFAYSYYAMGWYRQAPGKEREFVASIDWSGGSTYYADSVKGRITISRDNAMNTVYLQMNSLKPEATAVYYCAAELDYFPGYDSWGQGTQVTVSS”, the “polyreactivity (PSR sort gate)” value was “low polyreactivity”.

Consider “QVQLVESGGGLVQAGGSLRLSCASSGFIFPWNAMGWYRQAPGKERELVADISTGTSRTYADSVKGRFTISRDNAKNTVYFQMNSLKPEDTAVYYFNKAHNYKYDWGQGTQVTVSS”, for which the “polyreactivity (PSR sort gate)” value is on record as “low polyreactivity”.

Take “QVQLVESGGGLVQAGGSLRLSCASSGFIFYYNAMGWYRQAPVKERELVAAISYGGGSTYYADSVKGRFTISRDNAKNTVYLQMNSLKPEDTAVYYCSARVYWWNASLAGNYWGQGTQVTVSW”: the “polyreactivity (PSR sort gate)” value is given as “low polyreactivity”.
